In PMC12281484, “Targeted O‑GlcNAcylation of CK2α Triggers Its Ubiquitin-Proteasome Degradation and Alters Downstream Phosphorylation” (ACS Chemical Biology, 2025):

Target: T1, HTN-CK2α^WT with O-GlcNAcylation at Ser347 induced by OGTAC-1 (cells co-expressing fOGT) (UniProt P68400 1-391, O-GlcNAc at Ser347 (level increased by about 2-fold with 100 nM OGTAC-1 at 8 h))
T1 construct: casein kinase II subunit α (CK2α); Same construct as m1; only a part of the copies is modified (the level is raised over the baseline, not complete); also called HTN-CK2α (OGTAC-1 treated); CK2α with higher O-GlcNAcylation level; source: transfected cells co-expressing fOGT, treated with OGTAC-1 for 8 h, in lysate; not shown: HaloTag, N-terminal, kept
T1 sequence (P68400 whole entry): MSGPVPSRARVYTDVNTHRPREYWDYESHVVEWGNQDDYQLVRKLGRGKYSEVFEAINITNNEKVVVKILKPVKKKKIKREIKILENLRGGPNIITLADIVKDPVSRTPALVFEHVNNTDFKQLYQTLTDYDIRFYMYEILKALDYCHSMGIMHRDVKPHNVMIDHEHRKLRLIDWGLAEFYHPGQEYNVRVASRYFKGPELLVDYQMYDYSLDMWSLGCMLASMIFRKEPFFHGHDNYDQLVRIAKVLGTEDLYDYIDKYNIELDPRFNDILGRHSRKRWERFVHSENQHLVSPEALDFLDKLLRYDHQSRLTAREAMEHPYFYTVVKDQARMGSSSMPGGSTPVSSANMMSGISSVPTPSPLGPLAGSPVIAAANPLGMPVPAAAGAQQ
Experiment: co-IP; Flag-CRBN, HTN-CK2α (WT or S347A) and fOGT (WT or K852A) overexpressed in cells; DMSO or 100 nM OGTAC-1 for 8 h; HaloTrap IP; anti-FlagTag and anti-HA-Tag blots
Details: partners not purified

B1: Flag-CRBN (cereblon) (natural protein, UniProt Q96SW2 1-442, looked up)
chain: MAGEGDQQDAAHNMGNHLPLLPAESEEEDEMEVEDQDSKEAKKPNIINFDTSLPTSHTYLGADMEEFHGRTLHDDDSCQVIPVLPQVMMILIPGQTLPLQLFHPQEVSMVRNLIQKDRTFAVLAYSNVQEREAQFGTTAEIYAYREEQDFGIEIVKVKAIGRQRFKVLELRTQSDGIQQAKVQILPECVLPSTMSAVQLESLNKCQIFPSKPVSREDQCSYKWWQKYQKRKFHCANLTSWPRWLYSLYDAETLMDRIKKQLREWDENLKDDSLPSNPIDFSYRVAACLPIDDVLRIQLLKIGSAIQRLRCELDIMNKCTSLCCKQCQETEITTKNEIFSLSLCGPMAAYVNPHGYVHETLTVYKACNLNLIGRPSTEHSWFPGYAWTVAQCKICASHIGWKFTATKKDMSPQKFWGLTRSALLPTIPDTEDEISPDKVILCL
notes: cereblon (CRBN), plasmid bought from Addgene; source: co-IP methods: HeLa or HEK293T
- fold change of co-IPed CRBN over the DMSO treatment: ~2 fold
